Key:
[1] = target: T1, hSIRPα expressed on primary human cells (human, UniProt P78324 31-504); assay: flow cytometry on CD14+ enriched monocytes, human donor 2, AF647 goat-anti-mouse IgG
T1 construct: whole, on cells; also called hSIRPα on primary human CD14+ monocytes; on primary human granulocytes
Method: (§1) Next, the binding of hSIRPα.40A to hSIRPα expressed on primary human CD14⁺ monocytes was investigated. In addition, the ability of hSIRPα.40A to block the interaction between hSIRPα and recombinant hCD47/Fc-protein was assessed. For this purpose, CD14+ monocytes were isolated from Ficoll-purified human peripheral blood mononuclear cells (PBMCs) using RosetteSep human monocyte enrichment cocktail (Stemcell). The percentage of monocytes present after the enrichment was determined by flow cytometry on the FACSVerse (BD Biosciences) based on CD14 staining using an APC-Cy7-conjugated mouse-anti-human CD14 detection antibody (BD Biosciences). […] After this labeling procedure, cells were washed two times, resuspended in PBS/1% BSA containing 0.1 μg/mL DAPI (BioLegend), and analysed by flow cytometry on the FACSVerse (BD Biosciences). Data were processed and analysed with FlowJo V10 software (FlowJo, LLC).
(§2) To assess the blocking ability of hSIRPα.40A, CD14+ enriched monocytes cells were seeded in 96-well round bottomed tissue culture plates and incubated for 45 minutes with FcR Blocking Reagent (Miltenyi Biotec) and hSIRPα.40A antibody (20 μg/mL and dilutions thereof) in PBS/1% BSA at 4° C. […] After this labeling procedure, cells were washed two times, resuspended in PBS/1% BSA containing 0.1 μg/mL DAPI (BioLegend), and analysed by flow cytometry on the FACSVerse (BD Biosciences). […]

[2] = target: T1, hSIRPα expressed on primary human cells; assay: flow cytometry, primary CD14+ enriched monocytes, donor 2
Method: as §1, with “hSIRPα.50A” for “hSIRPα.40A”
as §2, with “hSIRPα.50A,” for “hSIRPα.40A,”, “hSIRPα.50A” for “hSIRPα.40A”, “(200” for “(20”

[3] = target: T2, human SIRPβ1 (human, UniProt O00241 30-398); assay: CELISA, CHO-K1 transfectants
T2 construct: also called hSIRPβ1
Method: (§3) Reactivity was confirmed using CHO-K1 cells (ATCC CCL-61) expressing a cDNA encoding the full length open reading frame of hSIRPαV1, hSIRPαV1(P74A), hSIRPαV2, and hSIRPβ1 subcloned into the pCI-neo vector (Promega, Madison, Wis.). CHO-K1.hSIRPαV1, CHO-K1.hSIRPαV1(P74A), CHO-K1.hSIRPαV2, and CHO-K1.hSIRPβ1 cells were seeded in culture medium (DMEM-F12 (Gibco) supplemented with 5% New Born Calf Serum (BioWest) and Pen/Strep (Gibco)) in 96-well flat-bottom tissue culture plates and incubated at 37° C., 5% CO₂ and 95% humidity for 24 hours. Subsequently, culture medium was removed and cells were incubated for 1 hour at 37° C., 5% CO₂ and 95% humidity with purified hSIRPα antibodies (used at 10 μg/mL and dilutions thereof). Next, cells were washed with PBS-T and incubated for 1 hour at 37° C., 5% CO₂ and 95% humidity with goat-anti-mouse IgG-HRP (Southern Biotech). Subsequently, cells were washed three times with PBS-T and immunoreactivity against hSIRPαV1, hSIRPαV1(P74A), hSIRPαV2, and hSIRPβ1 was visualized with TMB Stabilized Chromogen (Invitrogen). Reactions were stopped with 0.5 M H₂SO₄ and absorbances were read at 450 and 610 nm.

[4] = target: T3, hSIRPαV1(P74A) (human, UniProt P78324 31-504); assay: CELISA, CHO-K1 transfectants
T3 construct: also called P74A variant of hSIRPαV1
Method: as §3

T1 sequence (P78324 31-504): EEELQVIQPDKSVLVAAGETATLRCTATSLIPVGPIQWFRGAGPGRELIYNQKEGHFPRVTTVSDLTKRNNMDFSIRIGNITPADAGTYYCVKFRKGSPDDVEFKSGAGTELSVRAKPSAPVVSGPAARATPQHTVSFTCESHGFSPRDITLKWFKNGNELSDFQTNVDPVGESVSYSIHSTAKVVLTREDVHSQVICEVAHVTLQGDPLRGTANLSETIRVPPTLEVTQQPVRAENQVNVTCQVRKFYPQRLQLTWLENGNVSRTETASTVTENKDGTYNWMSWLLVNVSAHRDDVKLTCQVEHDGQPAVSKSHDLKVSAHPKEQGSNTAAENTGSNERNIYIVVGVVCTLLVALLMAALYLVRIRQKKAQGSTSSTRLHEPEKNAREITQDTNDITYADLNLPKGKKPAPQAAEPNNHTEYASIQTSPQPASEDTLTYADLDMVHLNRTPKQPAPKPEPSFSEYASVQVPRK
T2 sequence (O00241 30-398 limits assumed): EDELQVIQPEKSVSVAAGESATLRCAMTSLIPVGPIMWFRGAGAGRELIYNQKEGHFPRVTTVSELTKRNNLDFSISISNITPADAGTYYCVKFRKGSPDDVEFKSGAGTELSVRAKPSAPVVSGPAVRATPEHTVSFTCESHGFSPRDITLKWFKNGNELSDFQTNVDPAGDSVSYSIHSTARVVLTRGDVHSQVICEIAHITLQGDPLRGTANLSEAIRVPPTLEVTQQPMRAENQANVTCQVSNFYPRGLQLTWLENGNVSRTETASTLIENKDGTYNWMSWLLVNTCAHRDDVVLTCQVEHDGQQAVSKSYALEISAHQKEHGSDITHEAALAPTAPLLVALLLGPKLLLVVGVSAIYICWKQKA

B1: hSIRPα.40A (antibody, mouse IgG1, kappa, V domains shown)
VH: EVQFQQSGTVLARPGTSVKMSCKASGSTFTSYWMHWVKQGPGQGLQWIGAIYPVNNDTTYNQKFKGKAELTVVTSTSTAYMEVSSLTNEDSAVYYCTRSFYYSLDAAWFVYWGQGTLVTVSA
VL: DIQMTQSPSSLSASLGERVSLTCRASQDIGSRLNWLQQEPDGTIKRLIYATSSLDSGVPKRFSGSRSGSDYSLTISGLESEDFVDYYCLQYASSPFTFGGGTKLEINR
notes: mouse antibody, full chains without signal peptide; also called mouse hSIRPα.40A
EC50 (read off the curve) [1]: ~0.7 nM

B2: hSIRPα.50A (antibody, V domains shown)
VH: QVQLQQSGPELVKPGASVRISCKASGFTFTNYYIHWVKQRPGQGLEWIGWIYPGNVNTKYNEKFKAKATLTADKSSTTAYMQLSSLASEDSAVYFCARPTIIATDFDVWGAGTTVTVSS
VL: DIVMTQSHKFMSTSVGDRVNITCKASQGVGTAVGWYQQKPGQSPRLLIYWASTRHTGVPDRFTGSGSGTDFSLAISNVQSEDLADYFCQQYSTYPFTFGGGTNLEIK
notes: light chain constant domain not tied; also called mouse hSIRPα.50A; hSIRPα.50A.mIgG1
EC50 [2]: 3.08 nM

B3: KWAR23 (antibody, V domains shown)
VH: EVQLQQSGAELVKPGASVKLSCTASGFNIKDYYIHWVQQRTEQGLEWIGRIDPEDGETKYAPKFQDKATITADTSSNTAYLHLSSLTSEDTAVYYCARWGAYWGQGTLVTVSS
VL: QIVLTQSPAIMSASPGEKVTLTCSASSSVSSSYLYWYQQKPGSSPKLWIYSTSNLASGVPARFSGSGSGTSYSLTISSMEAEDAASYFCHQWSSYPRTFGAGTKLELK
EC50 [3]: 0.033 nM | EC50 [4]: 0.049 nM
